# Laboratory results from patent publication US20040138119A1 (BURNHAM INSTITUTE, published 2004).
# B1: His6-pro-Caspase-9 (enzyme)
# chain: HHHHHHMDEADRRLLRRCRLRLVEELQVDQLWDALLSRELFRPHMIEDIQRAGSGSRRDQARQLIIDLETRGSQALPLFISCLEDTGQDMLASFLRTNRQAAKLSKPTLENLTPVVLRPEIRKPEVLRPETPRPVDIGSGGFGDVGALESLRGNADLAYILSMEPCGHCLIINNVNFCRESGLRTRTGSNIDCEKLRRRFSSLHFMVEVKGDLTAKKMVLALLELAQQDHGALDCCVVVILSHGCQASHLQFPGAVYGTDGCPVSVEKIVNIFNGTSCPSLGGKPKLFFIQACGGEQKDHGFEVASTSPEDESPGSNPEPDATPFQEGLRTFDQLDAISSLPTPSDIFVSYSTFPGFVSWRDPKSGSWYVETLDDIFEQWAHSEDLQSLLLRVANAVSVKGIYKQMPGCFNFLRKKLFFKTS
# notes: also called recombinant pro-Caspase-9
# How the values were obtained:
# [1] = target: HBXIP/Survivin complex (GST-HBXIP with purified untagged Survivin) (human, UniProt O43504 1-91; O15392 1-142); assay: GST pull-down, anti-Caspase-3 immunoblot
# [2] = target: T1, GST-HBXIP (human, UniProt O43504 1-91); assay: GST pull-down, anti-Caspase-3 immunoblot
# [3] = target: T1, GST-HBXIP; assay: GST pull-down, anti-Caspase-9 immunoblot
# [4] = target: B1; assay: GST pull-down in the presence of Survivin, anti-Caspase-9 immunoblot
binder,measurement,setting,value
His6-pro-Caspase-3 (enzyme) HHHHHHMENTENSVDSKSIKNLEPKIIHGSESMDSGISLDNSYKMDYPEMGLCIIINNKNFHKSTGMTSRSGTDVDAANLRETFRNLKYEVRNKNDLTREEIVELMRDVSKEDHSKRSSFVCVLLSHGEEGIIFGTNGPVDLKKITNFFRGDRCRSLTGKPKLFIIQACRGTELDCGIETDSGVDDDMACHKIPVEADFLYAYSTAPGYYSWRNSKDGSWFIQSLCAMLKQYADKLEFMHILTRVNRKVATEFESFSFDATFHAKKQIPCIVSMLTKELYFYH,binding result,[1],no binding
same,binding result,[2],no binding
B1,binding result,[3],no binding
"active His6-Caspase-9 (lacking CARD domain) (enzyme, also called active Caspase-9) HHHHHHVGALESLRGNADLAYILSMEPCGHCLIINNVNFCRESGLRTRTGSNIDCEKLRRRFSSLHFMVEVKGDLTAKKMVLALLELAQQDHGALDCCVVVILSHGCQASHLQFPGAVYGTDGCPVSVEKIVNIFNGTSCPSLGGKPKLFFIQACGGEQKDHGFEVASTSPEDESPGSNPEPDATPFQEGLRTFDQLDAISSLPTPSDIFVSYSTFPGFVSWRDPKSGSWYVETLDDIFEQWAHSEDLQSLLLRVANAVSVKGIYKQMPGCFNFLRKKLFFKTS",binding result,[3],no binding
"GST-CD40 (cytosolic domain) control protein (other, UniProt P25942 216-277, looked up, not shown: a dimerising Fc or GST, domain: cytosolic domain) KKVAKKPTNKAPHPKQEPQEINFPDDLPGSNTAAPVQETLHGCQPVTQEDGKESRISVQERQ",binding result,[4],no binding
